PMC8609364, “A Selective Tether Recruits Activated Response Regulator CheB to Its Chemoreceptor Substrate” (mBio, 2021)

Assays:
[1] = system: pentapeptide-bearing Tar4E and Tar4Q; experiment: CheB binding to pentapeptide-bearing Tar, 4E and 4Q (biolayer interferometry); design: species or system E. coli; conditions: Tar4E versus Tar4Q
Experimental: (§1) We determined the kinetics of association and dissociation of methylesterase/deamidase CheB in its low- and high-activity form with the E. coli aspartate chemoreceptor Tar using biolayer interferometry ([22], [23]) and isolated receptor homodimers in Nanodiscs ([24], [25]). Apparent rate constants of association and dissociation were derived from global fits of time courses for binding and release (see Fig. S1 in the supplemental material). Equilibrium dissociation constants were calculated from those apparent rate constants.
E. coli CheB and Salmonella CheB D56C/C207S/C309S and D56C/S164A/C207S/C309S were purified as described previously ([11]). CheBC (amino acids [aa] 153 to 349) was purified using the procedure of West et al. ([40]), except that Bio-Gel P-60, was not used. […] The extent of modification was 59% for the former and 60% for the latter determined by reversed phase chromatography essentially as described previously ([26]) and confirmed by Nano LC-Nanospray QTQF mass spectroscopy. […]
(§2) Kinetics of CheB association and dissociation with Nanodisc-embedded Tar biotinylated at L378C were determined using biolayer interferometry ([22], [23]) as measured by a BLItz instrument (ForteBio, Menlo Park, CA, USA) and described in reference. […]

TarQEQE = conditions: pulldown assay, pentapeptide at carboxyl terminus of TarQEQE in native membrane, unphosphorylated CheB; ref [21]; read-out: equilibrium dissociation constant [KD]; cited from earlier work
[2] = target: Tar4QΔpp-6H L378C, E. coli Tar lacking the carboxyl-terminal pentapeptide, all-glutaminyl form, homodimer in … (E. coli, UniProt P07017 1-553, L378C, biotinylated at L378C); experiment: BLI; BLItz; biotinylated Tar homodimers in Nanodiscs held on an avidin sensor tip, CheB or CheBC in solution; 50 mM Tris-HCl pH 7.5, 10% glycerol, 5 mM MgCl2, 50 mM KCl, 2% BSA, 2 mM DTT; global fit, apparent rate constants, KD calculated from kon and koff; conditions: both partners purified
[3] = target: Tar4EΔpp-6H L378C, E. coli Tar lacking the carboxyl-terminal pentapeptide, all-glutamyl form, homodimer in … (E. coli, UniProt P07017 1-553, L378C, biotinylated at L378C); experiment: as above; conditions: both partners purified
[4] = system: Tar4E and Tar4Q with or without pentapeptide; experiment: CheBC binding to pentapeptide-bearing and pentapeptide-lacking Tar (biolayer interferometry); design: species or system E. coli
Experimental: as §1
E. coli CheB and Salmonella CheB D56C/C207S/C309S and D56C/S164A/C207S/C309S were purified as described previously ([11]). CheBC (amino acids [aa] 153 to 349) was purified using the procedure of West et al. ([40]), except that Bio-Gel P-60, was not used. CheB D56C/C207S/C309S and CheB D56C/S164A/C207S/C309S were modified to create a disulfide-linked phosphoryl group on D56C following the procedure described in reference but using a 10-fold molar excess of DTNB [Ellman’s reagent, 5,5′-disulfanediylbis(2-nitrobenzoic acid)] rather than 90-fold and a 50-fold molar excess Na3SPO3 rather than 1,000-fold. The extent of modification was 59% for the former and 60% for the latter determined by reversed phase chromatography essentially as described previously ([26]) and confirmed by Nano LC-Nanospray QTQF mass spectroscopy. Membrane scaffold protein MSP1D1(-) ([41]) was purified as described previously ([25]). Tar4E L378C, Tar4Q L378C, Tar4EΔpp-6H L378C, and Tar4QΔpp-6H L378C were purified, incorporated into Nanodiscs at approximately one receptor dimer per disc, and biotinylated at L378C as described previously ([23], [42]). […] These activities were confirmed for representative samples used in our analyses. […]
as §2

[5] = target: Tar4E L378C, E. coli aspartate chemoreceptor Tar, all-glutamyl form with carboxyl-terminal pentapeptide, … (E. coli, UniProt P07017 1-553, L378C, biotinylated at L378C); experiment: SPR
[6] = target: Tar4Q L378C, E. coli aspartate chemoreceptor Tar, all-glutaminyl form with carboxyl-terminal pentapeptide, … (E. coli, UniProt P07017 1-553, L378C, biotinylated at L378C); experiment: SPR
[7] = target: Tar4EΔpp-6H L378C, E. coli Tar lacking the carboxyl-terminal pentapeptide, all-glutamyl form, homodimer in … (E. coli, UniProt P07017 1-553, L378C, biotinylated at L378C); experiment: SPR
[8] = target: Tar4QΔpp-6H L378C, E. coli Tar lacking the carboxyl-terminal pentapeptide, all-glutaminyl form, homodimer in … (E. coli, UniProt P07017 1-553, L378C, biotinylated at L378C); experiment: SPR

B1: methylesterase/deamidase CheB from E. coli, low-activity, unphosphorylated form (enzyme, UniProt P07330 1-349, looked up)
chain: MSKIRVLSVDDSALMRQIMTEIINSHSDMEMVATAPDPLVARDLIKKFNPDVLTLDVEMPRMDGLDFLEKLMRLRPMPVVMVSSLTGKGSEVTLRALELGAIDFVTKPQLGIREGMLAYNEMIAEKVRTAAKASLAAHKPLSAPTTLKAGPLLSSEKLIAIGASTGGTEAIRHVLQPLPLSSPALLITQHMPPGFTRSFADRLNKLCQIGVKEAEDGERVLPGHAYIAPGDRHMELSRSGANYQIKIHDGPAVNRHRPSVDVLFHSVAKQAGRNAVGVILTGMGNDGAAGMLAMRQAGAWTLAQNEASCVVFGMPREAINMGGVCEVVDLSQVSQQMLAKISAGQAIRI
notes: CheB methylesterase/deamidase of E. coli, unphosphorylated, from plasmid pCW/cheB; measured with 2 mM DTT in the buffer; also called low-activity CheB; unmodified CheB; source: E. coli K-12 RP3098 with pCW/cheB, purified
In the case of B1, the “effect of receptor signaling state on binding” value [1] is given as “the signaling state of the chemoreceptor coiled-coil body did not influence the binding of its pentapeptide to low-activity CheB”, the Kd (TarQEQE) is given as about 150 µM and the Kd [2] is given as 590 µM. It also gave a Kd [3] of 850 µM.

B2: CheBC, catalytic domain of E. coli CheB lacking the regulatory domain and linker (domain or fragment)
chain: LSSEKLIAIGASTGGTEAIRHVLQPLPLSSPALLITQHMPPGFTRSFADRLNKLCQIGVKEAEDGERVLPGHAYIAPGDRHMELSRSGANYQIKIHDGPAVNRHRPSVDVLFHSVAKQAGRNAVGVILTGMGNDGAAGMLAMRQAGAWTLAQNEASCVVFGMPREAINMGGVCEVVDLSQVSQQMLAKISAGQAIRI
In the case of B2, the “binding to chemoreceptors versus CheB-P*” value ([4]; compared with activated phosphorylation mimic CheB-P*) is reported as “bound much more weakly to chemoreceptors than the activated phosphorylation mimic CheB-P*”, the “preference for product form Tar4E versus substrate form Tar4Q” value ([4]; ratio of KD) is reported as “approximately twofold” and the “effect of presence or absence of pentapeptide on binding” value ([4]; with versus without NWETF) is reported as “no significant difference in binding in the presence or absence of pentapeptide”. For the same molecule, the Kd [5] was 590 µM, the Kd [6] was 1400 µM and the Kd [7] was 660 µM. For the same molecule, the Kd [8] was 1200 µM.
